Here are results for one substance from article PMC10902351.

For assay [1], the target named is Toxoplasma gondii actin (TgAct1), untagged (Toxoplasma gondii) (UniProt P53476).
The target is the same in assay [2]. Briefly: epifluorescence microscopy of single filament growth (in vitro actin growth assay); actin growth assay with inclusion of 0.1 mM AMPPNP, compared to MgATP conditions.

In assay [1], “Toxoplasma gondii actin (TgAct1), untagged (from UniProt P53476 1-376) (natural protein)” gave a phosphate (Pi) release after inducing polymerization of 12 µM TgAct1, MESG assay, 1-hour time course (phosphates per TgAct1 in 1 hour) of 3. The fold change of the critical concentration with 0.1 mM AMPPNP against MgATP conditions in assay [2] stood at 2 fold.
